Consider 18 molecules from patent publication US20110307974A1.

The target of this assay is T1, APC10 (AT2G18290) fused at its N-terminus with the traditional TAP tag or with the GS tag (Arabidopsis thaliana) (UniProt Q9ZPW2).
T1 sequence: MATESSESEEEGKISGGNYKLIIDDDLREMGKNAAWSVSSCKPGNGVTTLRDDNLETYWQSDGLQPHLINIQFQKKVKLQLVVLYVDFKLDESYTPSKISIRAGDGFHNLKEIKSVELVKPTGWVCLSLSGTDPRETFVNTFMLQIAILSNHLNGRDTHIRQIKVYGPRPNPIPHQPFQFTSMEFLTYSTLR
Description: TAP purification with tagged APC10 as bait from Arabidopsis cell suspension culture, MALDI-TOF/TOF MS identification.

Consider “APC1 (AT5G05560) (from UniProt Q9FFF9 1-1678)”, for which the Found/6 exp (of 6 experiments) came to 6.
Turning to “APC2 (AT2G04660) (from UniProt Q8H1U5 1-865)”, the Found/6 exp (of 6 experiments) was determined as 3.
Regarding “APC4 (AT4G21530) (from UniProt O65418 1-777)”, the Found/6 exp (of 6 experiments) was 6.
Then “APC5 (AT1G06590) (from UniProt Q8H1U4 1-916)”, with 6; and “APC7 (AT2G39090) (from UniProt Q8VY89 1-558)”, with 6; and “APC8 (AT3G48150) (from UniProt Q9STS3 1-579)”, with 6.
The result for “CCS52B (AT5G13840) (from UniProt Q8LPL5 1-481)” reads 1; that for “CDC16 (AT1G78770) (from UniProt B3DNN5 1-543)”, 6.
Take “CDC27a (AT3G16320) (from UniProt Q06AN9 1-717)”: the Found/6 exp (of 6 experiments) came out at 4.
The result for “CDC27b (AT2G20000) (from UniProt Q8LGU6 1-744)” reads 6.
Take “CDKA; 1 (AT3G48750) (from UniProt P24100 1-294) (enzyme)”: the Found/6 exp (of 6 experiments) turned out to be 1.
Take “RNase L inhibitor protein, putative (AT4G19210) (from UniProt Q8LPJ4 1-605)”: the Found/6 exp (of 6 experiments) was 2.
Take “UVI4 (AT2G42260) (from UniProt O48533 1-259)”: the Found/6 exp (of 6 experiments) amounted to 3.
“UVI4-like (AT3G57860) (from UniProt Q9M2R1 1-243)” came in with a Found/6 exp (of 6 experiments) of 2.
As to “eukaryotic translation initiation factor 3 subunit 8 (AT3G56150) (from UniProt O49160 1-900)”, the Found/6 exp (of 6 experiments) is 1.
For the molecule “expressed protein (AT4G25550) (from UniProt Q8GXS3 1-200)”, the Found/6 exp (of 6 experiments) stood at 2.
Then “phosphoprotein-related (ELF8) (AT2G06210) (from UniProt B5X0I6 2-1091)”, with 1.

B1: SAMBA (AT1G32310) (protein)
chain: MNGASPAHSLVSTTAVAGGGGSSGAAAGLDDFHFPPDIPSMQERKDEAMRVLKADLMTELDKEVKSLEEDSWMFEGPRSRIHLISRRGNFLKKGGEVKLW
As to B1, the Found/6 exp (of 6 experiments) came out at 4.
